# Assay: soluble fraction after stress (log2 fold change); higher = more stays soluble; pooled small domains, quantitative proteomics
# Details: stress: 50 degC
# In short: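 The measure of aggregation propensity here is the base-two logarithm of the fold change in the soluble amount of each protein after stress. A higher value means more of that protein stays in solution. Stress was applied at 50°C to pooled libraries of small protein domains, read out by high-throughput quantitative proteomics.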
row,Sequence,soluble fraction (log2)
1,HMLLTHEEQIVKRGWQAPVGPFAILDSRAEAMHGDLEMLRGDREAAEQHFRRAWQIIGPIVEQ,-0.0656
2,HMLMKILTDALEKMSPEELKELAEATGVKNTSSITPETMVGVFQAVFRVGGFKSYQLTLIIVNAVLKA,-0.126
3,HMLMRKAEVGVESLNLRHGPGTQYKVLEILPGGKSLHYLAEPRRGWVRVTTEEGTTGWTFLKFLKPE,-1.96
4,HMLNENNHGEWSIRMSNGLVVRLGRDELNRSLRRSIMAYAGLAPNYRSSIEYIDARYLGGVALKTF,-0.091
5,HMLNKRQAEILAEVSRLKEITPSELYKLQPNVSSRTLRRDMDVLVNKGLVSQDGSTKSTKYTYL,0.23
6,HMLNMTLGDRIRSRREELRMSQEELATRLGYKSRSTIAKIESGENDLTQSKIVAFAEALSTTARWLLDY,-1.04
7,HMLNVNDVIARNVRAARERKKLTLDGAAELTGVSRSMLAQIEKGEVNPTISVVWKIANGFKVSFTSLVEPQ,-0.498
8,HMLPAGSDAILRYLSSGAVKGIGVATAARIVEKFGDETLRILEEEPGRLAEIKGITAAKAKAIGEAFAGQ,-0.168
9,HMLPELIVTTKKGVTVTVTNGVITYSATSNGKATFTVPNYGKWTVSATINGTVISKVVDVTEAKQIPVLLG,0.196
10,HMLPERIQTIVALIGHGRAMDLVREFGGQEIKFPAQEGNDTWAALVEVIGEAATRKLAAVFGGGQAPPVYI,-0.778
11,HMLPGVPVVAGKTQSAATRILKAAGYAVSVVREEAFDGVTGTVLRTSPEAGSPLAPGSRVTLVVLQVV,-0.27
12,HMLPGWMETKFTANVSENTKNRTLEEHVLKMLNNKESAAEFIIFLHEKMMSVSGQVFQLDSR,0.149
13,HMLPIGSSREQVISSLNKMHQDYKEEGNFIYAGYFKQGLPLVPSPRISIALQFNETAHLEKIDATLNYV,-0.305
14,HMLPKLAEEYAIMEIRGKGENLTAKLINKGGDSFMVRNGTVLQTGHRIDEITQTYVRAEINGMKDYLYFA,0.417
15,HMLPLLAFDEKLNRLGYGGGFYDRTLASLAHKGNTITAIGIAYESQKMDKVPTGYFDRPLDGVLTPSGLIM,0.0274
16,HMLPNLWVMGPGDHLWRVAEVAMTKHLGRPVANHEIDGYWRRLVALNRESLIDPDNPDLVFAGQVIELPPF,-2.32
17,HMLPQGKGTAMWLADHLAAASVTLDAGARKLLEDTLGEDMSRLPGVLRVLEATFGSDAGRLSAEDIEPFL,0.31
18,HMLPRNKRIEIALTYIYGLGRHAATVVLKHANISPDKRTDDLDENDVRKLRDAIDANFRVEGDLRR,-0.0528
19,HMLPTVSITGHIFIRSGSPLNRIFVGEKIYHVGDHIDRDWVIESIGIDTLTIRSGTLSTQLPL,-2.87
20,HMLPVFNYQVYRTHGLIYVYAKDNDSFDQIARSMGFKAKQLMKFNEVPEDFPLQAGDIVYLEKKKK,-1.42
21,HMLPVLEIGTMIRIIRQPHFGTIARVVALPEELTKVESETLVRILDAEFDDGTRVRIPRANVEVIE,-1.25
22,HMLPYGDRRRHTDNTISRIRELAAALDDSGIADRLNQDGYVTPEGKPFTYAGVRWIRYKYDISGPYERN,-1.5
23,HMLQKVELSDNEKFIFDSLQKEQKMALLRLKELVNLSNKAWDVSVKNLTKQGLVKVTKIDEELLIEI,-0.949

row,Sequence,soluble fraction (log2)
1,HMLQPQMKKFLNYESARNKMRPFGLSTRKEWRLFVDEGNRPADIPGDPYKKYKNKGWISWPHFLGK,-1.58
2,HMLRDTTLLHIDSIVRDGSTAMANITVRDEGTDLEFPLQLRMERGDMGWQVVRIVNYRAYLEAVQKA,-0.336
3,HMLRGKNALMSQLDQIQGIGPKRKRALFNHFLTLDAIKQADVETLRQAPGMNLPAAEQVYRHFHM,0.0637
4,HMLRIIDYNRVVKDLNGLTPEQLLEKLAESFTVEDKGTEEYRPTELHNFSMYLGGHWYSLTAKPGTYDDND,-0.937
5,HMLRMTRNRQKLVEVLMESGRPLSADEIREAAGFASTDLVTVYRNLEAFQSAGLLQRIPLENGSQLFELT,-0.478
6,HMLRNDEAVMLGRRLLNKHLQAFSVQIKDISHQRIHDLLDELELESLDHLLDDIGLGNRSVFLVAQKLLQ,-1.39
7,HMLRQRVFRIIQNNINSKNYFVYTKQILAELAGISMRSLNRTLSELQNDRLIIVDSGTIRLFT,-1.49
8,HMLRVGASVTANGKYWYDSYGSKPFGTANNLSTTVTRIVPGNPYPIHIGSYGWLQESQIQIT,-1.03
9,HMLSDADLAAFREVFDLVDKDKSGAIEMEEVEELTKLLGLDLTRDEVELLVREIDKDGNGEVDFEEFLLVM,0.0193
10,HMLSDHGLNDRQIMVIAGLMNGGTVTVRSIESQYGVSLNTARADVKMLVDAGLLTETGREVNMKVYSWSGK,-2
11,HMLSDSDTLRDLYLSEQIWNVGDLIRVKGKNDDTHPSWEIIRRGTNYITAIDENYKSHKVWLHDIDI,-1.17
12,HMLSEKELLELLNRAKSNYNGITKKGIEAIALKYQGYSNVEIANLYHVKANHISAWISRARSRLKADY,0.193
13,HMLSNLYAVLGVGRRATPDEITAAFDAWNARADAGEPIDDPLWERVRYAWDVLSSPSRRDLYDSLVDDATG,-1.71
14,HMLSSREEKILNYLNEHQIITRKKAQELLETSQSTAGRVLKIMVDNGLIVQYGGSRSIWYELIK,-0.939
15,HMLSTGIIIGDNVALRKTASSNGGIITRLDEGTVVKILASNVNAEWYQVEAGTKTGYVNRLYVNID,-0.293
16,HMLSTGQLIRYYRKRAGMTQAELAEEVEMSEPGIRNYELGNRTPSKAQLSAIARGLGIEPEALI,-0.48
17,HMLSVKEQTYQIIKEKILNQEYPAGARININELAEELGISNSPIREALSLLEQQGLVISNRSSGATVT,0.00507
18,HMLSVLKNVDVNSLSDDKIKTYWQQIQKSGYTLDEVEVLAEAQGISPLKIAAFKRRVQSLQQSLQT,0.199
19,HMLSYDDTVVIGRNLLENAMKQKNIALEQLTDEVLARLAKELQVESVEAMYAGIGSGKRPSSFIINRLEAH,-0.569
20,HMLSYFKIIKNGLVREGPASYYKIAENLEIGTIVQAFEKHDDWYLIKTHSGRIGWIVASDVTPQV,-0.245
21,HMLTAHEAILKELRKMLLTGVLSPGEAVRPEIIGESFGVSAVPVREALRILEGEGQVLNRPHKGYVVT,-0.568
22,HMLTANPEEVVNRLTSAGEVGVRPLLDVDDPINAISTLLAIREDVYKQFAQFDTVGKSPSEIAHEIDDFL,0.00575
23,HMLTEERLQIITDTVNSRSSVTIAELSRILDVSPSTVKRDLNILAEAGKITKVRGGAIALGE,-0.0232

row,Sequence,soluble fraction (log2)
1,HMLTGDVDRYKDFFIALEKTSPVPIGFEKIIGGAHGYYHLEDKRIAIDEGMSELQTLKTAIHEIAHAKLHD,-0.14
2,HMLTGNTAKLFAHLVEVMNPKEFVKINRQTVIVEAGIPRGSVGAAIAKLLETGHLIANASGAYKLT,0.322
3,HMLTIEEYLTQLKKLMKDRDAATVRDALSDAEEHLRNAMAGEDPSRLDGIIEEYGSPEEIAAAYKIMEEHT,0.0389
4,HMLTIQNYFNQVKNIDWEQVPAALSKGHQLVEGASQNNWSAYHSNANIQRVVEAYFQKLNDYLEKN,-0.191
5,HMLTKGDRQSIRDSIIYMVGNAPRTLDYIVAESRYSEEDVIEAVRSLLSSHILSIDDSDMISLTRK,-0.448
6,HMLTNNYKNDKALRFAKNHGIHESNILKLVSLYENAPEKGFNAQSIAELLGITPRSASRILVKLLQHNLIR,-1.42
7,HMLTPSRVLPYLFEDSFFIDTLSLEKDQVVGFLEYIDERLPPQDLMNKSKEFELIDYLINESEAYLSQ,0.0334
8,HMLTQEEITRRRGEILTAAMGVILRKGFLETSMREIAEAAGVGKSTLYDYFPSKDEIMIAYVVD,-0.938
9,HMLTRYNVNYYYNGEILQRRKVAEGSAAERITYLSGSLEVTDWYTEADLLRKYDFTEPVTGDLNLYAFARI,-1.05
10,HMLTSAQLAEIRQAVRAGQASVVEDLLKNGASPNFRMENGDTGFTYAVRADTPQVAEALLKSGKL,-0.0678
11,HMLTTIRKATVNDKTRIMEIYAYARQFMAEHGNPNQWKNNNPSEETIDNDIAKQEMYVIETDGEVHAVFY,-1.44
12,HMLVDWNYLEGKRGVTTTPLTPSGKARFGDDVVNVLSDGVLVSTGTPVRVLQVLGNRVLVEPLDG,0.0957
13,HMLVGRDPQALILGSMPSEKSLEEDEYYAHPRNRFWSLMNWLLAGNKTRPAYKTGIEILSSHGIALWV,-0.263
14,HMLVIMKTGASEEEIGRVIERIEGEGLSAHVSRGTERTVIGVIGQGVDVHRIAGVLGGMSGVESLVPIS,0.0405
15,HMLVLAENMDVIFTRRTLDDHVVVDYKTTIGEMVKNDEIKGENMDELISAVEKDGYELVSSTSGEIIFLND,-1.2
16,HMLVVEPSAELKTIIDKTASFVARNGPEFEARIKNEQNNAKFSFLQPNDPFNPYYRAKIVELGGTV,0.0591
17,HMLVYQRLDKDNFIFEGKTLLNDIYKILDIESNYFEAIRGEADSIAGLLLEIAKSIPTINTEF,-0.171
18,HMLYEDVQVPNVRYWKSRDAKKQLEDLGLRVLTEHVNDAYIQSDQVIRTSPEIGDTLRTGDTVTLYVSDG,0.185
19,HMMKLSKRQEQIIAVVKEHQPVSGERISDILAVSRATLRSDLSFLTLSGILKASPKVGYTYES,-1.12
20,HMMLVKKMLNGIMMKEITIKELADQYDVSTRTIQLKIKKLGYEWDSKESIYRYVGKESEPLDVDFSTLI,-3.29
21,HMMQEIKLEVINNEELRIDNYINLAGIGLSRSYIQKLIKDGVILVNGKEVKSSYKVSLGDIISVQIPDPG,0.299
22,HMMVIMRANATEPQIANVVAYVEKNGLNAHLSRGAERTVIGVVGDIRRVSKETFELMDGVDSVMRIS,-0.356
